Drawing on paper PMC7505961, this text covers Kd for 1 molecule.

This experiment has as its target 145-Tailless nucleosome (145 bp Widom 601 DNA with tailless histone mutants H4-del 1-20, H3-del 1-37, H2A-del 1-15 and H2B-del 1-31), P06897. The experiment is described as follows: native gel or EMSA; FAM-labelled nucleosome (0.8 pmol; oligonucleosomes 0.1 pmol) mixed with different amounts of cGAS in 20 mM Tris-HCl pH 7.6, 60 mM NaCl, 5 mM MgCl2, total volume 10 ul; on ice 30 min; 1.5% agarose gel, 0.2x TBE; Kd from percent bound nucleosome against cGAS concentration. The note with it: remark: other sources report otherwise.

B1: human cGAS (cGMP-AMP synthase), Q8N884 1-522 (enzyme)
chain: MQPWHGKAMQRASEAGATAPKASARNARGAPMDPTESPAAPEAALPKAGKFGPARKSGSRQKKSAPDTQERPPVRATGARAKKAPQRAQDTQPSDATSAPGAEGLEPPAAREPALSRAGSCRQRGARCSTKPRPPPGPWDVPSPGLPVSAPILVRRDAAPGASKLRAVLEKLKLSRDDISTAAGMVKGVVDHLLLRLKCDSAFRGVGLLNTGSYYEHVKISAPNEFDVMFKLEVPRIQLEEYSNTRAYYFVKFKRNPKENPLSQFLEGEILSASKMLSKFRKIIKEEINDIKDTDVIMKRKRGGSPAVTLLISEKISVDITLALESKSSWPASTQEGLRIQNWLSAKVRKQLRLKPFYLVPKHAKEGNGFQEETWRLSFSHIEKEILNNHGKSKTCCENKEEKCCRKDCLKLMKYLLEQLKERFKDKKHLDKFSSYHVKTAFFHVCTQNPQDSQWDRKDLGLCFDNCVTYFLQCLRTEKLENYFIPEFNLFSSNLIDKRSKEFLTKQIEYERNNEFPVFDEF
Take B1: the Kd came out at 79 nM.
